Measurements from the supplement of paper PMC12667976.
± gives the standard error.

B1: library; numbered along this chain (parent)
chain: MATDAALRRLLRLHRTEIAVAVDSAFPLLHALADHDVVPEDKFQETLHLKEKEGCPQAFHALLSWLLTQDSTAILDFWRVLFKDYNLERYGRLQPILDSFPKDVDLSQPRKGRKPPAVPKALVPPPRLPTKRKASEEARAAAPAALTPRGTASPGSQLKAKPPKKPESSAEQQRLPLGNGIQTMSASVQRAVAMSSGDVPGARGAVEGILIQQVFESGGSKKCIQVGGEFYTPSKFEDSGSGKNKARSSSGPKPLVRAKGAQGAAPGGGEARLGQQGSVPAPLALPSDPQLHQKNEDECAVCRDGGELICCDGCPRAFHLACLSPPLREIPSGTWRCSSCLQATVQEVQPRAEEPRPQEPPVETPLPPGLRSAGEEVRGPPGEPLAGMDTTLVYKHLPAPPSAAPLPGLDSSALHPLLCVGPEGQQNLAPGARCGVCGDGTDVLRCTHCAAAFHWRCHFPAGTSRPGTGLRCRSCSGDVTPAPVEGVLAPSPARLAPGPAKDDTASHEPALHRDDLESLLSEHTFDGILQWAIQSMARPAAPFPS

Variants of: B1
Assay: AIRE transcriptional activation functional score (insulin promoter-GFP; nonsense median 0, synonymous median 1) (normalised score); higher = higher AIRE activity (more reporter activation)
Conditions: with insulin promoter-GFP reporter in HEK293
Description: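 Deep mutational scan of full-length human AIRE (codon-optimized cDNA, DT-POPCode NNN libraries over three regions) integrated at a Bxb1 landing pad in HEK293 cells carrying an insulin core promoter-GFP reporter at a Flp-In site. Cells were sorted for the top 10% GFP about 14 days after transfection. Variant frequency log-ratios (select vs non-select, TileSeq) were rescaled so that the nonsense median is 0 and the synonymous median is 1, then averaged over biological replicates.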

AIRE transcriptional activation functional score: each site, then its substitutions
E167: L 1.76 ± 0.47, V 1.18 ± 0.19, A 0.894 ± 0.18, W 2.34 ± 0.058, F 1.89 ± 0.12, M 1.68 ± 0.21, K 0.721 ± 0.74, N 1.8 ± 0.078, G 1.02 ± 0.37, P 0.414 ± 0.29, I 1.19 ± 0.28, T 0.707 ± 0.28, R 0.328 ± 0.84, D 1.12 ± 0.48, Q 0.862 ± 0.17, Y 2.17 ± 0.39, S 0.898 ± 0.7, C 1.33 ± 0.22, H -0.185 ± 0.41
P162: N -1.7 ± 0.52, H 2.88 ± 0.062, A 0.796 ± 0.87, I 1.97 ± 0.41, M 0.548 ± 0.41, T 0.633 ± 0.6, R 0.224 ± 0.29, V 0.356 ± 0.46, Y 2.9 ± 0.096, Q 1.54 ± 0.23, S 0.476 ± 0.69, C 1.41 ± 0.097, E 0.27 ± 0.49, F 1.37 ± 0.11, G 1.1 ± 0.26, W 1.26 ± 0.46, L 1.04 ± 0.9
K164: M 1.88 ± 0.24, T 0.821 ± 0.83, D -0.844 ± 0.5, A 1.17 ± 0.25, H 1.27 ± 0.18, Y 0.624 ± 0.74, P 1.62 ± 0.12, R 1.85 ± 0.55, Q 0.909 ± 0.12, I 0.719 ± 0.5, G 1.83 ± 0.32, C 0.129 ± 0.57, S 1.22 ± 0.41, N 1.52 ± 0.46, L 1.14 ± 0.35, F 1.41 ± 0.2, W 1.33 ± 0.58, V 0.666 ± 0.47, E 0.857 ± 0.29
S168: C 1 ± 0.57, D 0.307 ± 0.097, A 0.888 ± 0.66, F 1.44 ± 0.11, E 0.606 ± 0.34
A152: S 0.715 ± 0.46, I 0.777 ± 0.33, C 0.402 ± 0.25, G 0.815 ± 0.37, L 1.19 ± 0.46, K 0.993 ± 0.36, W 1.68 ± 0.4, H 0.789 ± 0.29, Y 1.21 ± 0.48, P 0.594 ± 1, R 0.913 ± 0.49, V 1.17 ± 0.27, Q 0.894 ± 0.41, T 1.32 ± 0.64, D 0.696 ± 0.32, E -0.141 ± 0.22, N 0.485 ± 0.32, F 1.55 ± 0.15, M 1.86 ± 0.072
G155: D 0.338 ± 0.16, H 1.71 ± 0.16, W 1.83 ± 0.1, M 2.34 ± 0.066, Q -0.156 ± 0.43, C 0.555 ± 0.12, L 0.509 ± 0.4, I 0.209 ± 0.65, V 0.534 ± 0.28, Y 1.19 ± 0.37, K 0.662 ± 0.7, F 1.61 ± 0.35, P -0.203 ± 0.099, T 0.66 ± 0.12, E 0.777 ± 0.83, R 1.01 ± 0.47, A 1.44 ± 0.52, S 0.589 ± 0.56, N 0.154 ± 0.25
K165: H 1.16 ± 0.37, D 0.206 ± 0.069, E 1.01 ± 0.52, L 0.369 ± 0.6, W 1.06 ± 0.12, C 0.37 ± 0.17, V 0.921 ± 0.66, Y 0.91 ± 0.26, T -0.814 ± 0.87, M 1.15 ± 0.16, S 0.597 ± 0.56, Q 0.596 ± 0.87, P -0.251 ± 0.2, A -0.0692 ± 0.52, N 0.909 ± 0.42, F 1.23 ± 0.18, R 0.872 ± 0.69, I 2.29 ± 0.49, G 0.47 ± 1
P154: N 0.642 ± 0.3, V 0.461 ± 0.49, D 0.0296 ± 0.054, S 0.685 ± 0.35, Y 1.68 ± 0.36, W 1.13 ± 0.17, A 0.676 ± 0.42, M -0.062 ± 0.16, G 0.75 ± 0.43, F 1.89 ± 0.11, L 1.36 ± 0.46, T 1.35 ± 0.7, C 0.692 ± 0.45, R 0.579 ± 0.53, I 1.59 ± 0.16, Q -0.0735 ± 0.26, H 0.26 ± 0.51, E 0.475 ± 0.28, K -1.06 ± 0.26
A160: I 0.857 ± 0.48, T 0.43 ± 0.44, Y 1.08 ± 0.36, W 1.82 ± 0.051, P -0.0016 ± 0.82, M 0.0796 ± 0.22, F 1.12 ± 0.29, D 0.974 ± 0.075, K -0.392 ± 0.28, G 0.964 ± 0.44, R 1.01 ± 0.8, L 0.749 ± 0.39, S 1.14 ± 0.51, N 0.242 ± 0.33, Q -0.113 ± 0.054, E -0.0286 ± 0.97, H 0.574 ± 0.035, C 1.05 ± 0.24, V 1.38 ± 0.53
L158: C 0.528 ± 0.29, T 0.209 ± 0.54, A 0.834 ± 0.42, V 0.815 ± 0.39, S 0.724 ± 0.48, G 1.33 ± 0.7, E 0.986 ± 0.54, F 1.27 ± 0.11, D 0.772 ± 0.62, P 0.723 ± 0.55, W 1.22 ± 0.042, Q 0.833 ± 0.56
